T1: CD22 expressed on cells (U2932, NALM6, K562/CD22+ cells) (UniProt P20273 20-847, limits assumed)
T1 construct: whole, on cells; the cell lines are human lines; also called cells expressing CD22
T1 sequence (looked up): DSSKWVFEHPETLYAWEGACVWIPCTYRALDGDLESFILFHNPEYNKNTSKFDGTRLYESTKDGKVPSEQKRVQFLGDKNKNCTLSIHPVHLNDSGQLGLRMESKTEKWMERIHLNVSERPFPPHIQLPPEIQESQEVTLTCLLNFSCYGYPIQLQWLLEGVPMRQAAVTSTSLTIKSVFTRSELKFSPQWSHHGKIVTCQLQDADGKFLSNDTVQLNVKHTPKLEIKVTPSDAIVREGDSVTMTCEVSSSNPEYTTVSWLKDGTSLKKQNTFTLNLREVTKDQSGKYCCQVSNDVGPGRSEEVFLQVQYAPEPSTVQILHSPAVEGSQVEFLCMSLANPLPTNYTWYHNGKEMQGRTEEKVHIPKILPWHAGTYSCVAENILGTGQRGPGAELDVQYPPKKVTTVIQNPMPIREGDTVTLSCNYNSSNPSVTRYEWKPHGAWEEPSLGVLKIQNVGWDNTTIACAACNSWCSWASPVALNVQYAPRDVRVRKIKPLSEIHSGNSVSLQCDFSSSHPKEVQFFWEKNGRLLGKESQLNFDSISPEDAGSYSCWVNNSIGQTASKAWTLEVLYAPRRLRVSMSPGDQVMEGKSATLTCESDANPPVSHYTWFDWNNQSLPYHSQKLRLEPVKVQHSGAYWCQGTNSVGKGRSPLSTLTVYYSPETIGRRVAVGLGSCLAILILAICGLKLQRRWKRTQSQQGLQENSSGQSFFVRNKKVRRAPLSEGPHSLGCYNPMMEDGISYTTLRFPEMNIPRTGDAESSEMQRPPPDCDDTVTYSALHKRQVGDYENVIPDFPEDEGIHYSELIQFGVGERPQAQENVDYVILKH

T2: CD22 protein (ACRObiosystems Inc., cat #CD2-H52H8, USA) (UniProt P20273 20-687)
T2 construct: Named as the immunogen
T2 sequence (looked up): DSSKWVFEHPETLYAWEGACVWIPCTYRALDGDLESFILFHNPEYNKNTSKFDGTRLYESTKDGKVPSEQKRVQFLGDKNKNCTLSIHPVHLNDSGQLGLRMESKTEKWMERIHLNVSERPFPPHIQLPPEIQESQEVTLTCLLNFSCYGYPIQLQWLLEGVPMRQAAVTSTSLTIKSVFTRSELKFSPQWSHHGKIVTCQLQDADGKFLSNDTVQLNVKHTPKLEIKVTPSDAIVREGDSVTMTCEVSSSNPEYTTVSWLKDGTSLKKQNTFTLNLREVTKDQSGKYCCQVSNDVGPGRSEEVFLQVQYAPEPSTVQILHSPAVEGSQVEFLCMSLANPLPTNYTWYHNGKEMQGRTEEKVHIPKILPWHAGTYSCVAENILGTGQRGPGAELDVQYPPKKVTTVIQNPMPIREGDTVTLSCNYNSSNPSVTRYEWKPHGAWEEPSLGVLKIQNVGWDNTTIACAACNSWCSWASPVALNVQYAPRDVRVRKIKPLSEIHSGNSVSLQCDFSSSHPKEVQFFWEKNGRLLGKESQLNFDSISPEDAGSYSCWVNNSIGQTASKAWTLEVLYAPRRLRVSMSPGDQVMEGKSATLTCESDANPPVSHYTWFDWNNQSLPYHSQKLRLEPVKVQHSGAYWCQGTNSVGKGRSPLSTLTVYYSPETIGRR

B1: 2G1 antibody (mouse anti-CD22 antibody) (antibody, V domains shown)
VH: EVQLQESGPGLVAPSQSLSITCTVSGFSLTSYDISWIRQPPGKGLEWLGVIWTGGGTNYNSAFMSRLSISKDNSKSQVFLKMNSLQTDDTAIYYCVPHYYGYAMDYWGQGTSVTVSS
VL: DIVLTQSPSSLSASLGGKVTITCKASQDINKYIAWYQHKPGKGPRLLIHYTSTLQPGIPSRFSGSGSGRDYSFSISNLEPEDIATYYCLQYDNLLTFGAGTKLELK
notes: Obtained from a mouse hybridoma; also called mouse 2G1 antibody
B2: humanized anti-CD22 antibody 2G1(V4) (antibody, V domains shown)
VH: EVQLQESGPGLVKPSQTLSLTCTVSGFSLTSYDISWIRQPPGKGLEWLGVIWTGGGTNYNSALKSRVTISKDNSKSQVSLKLSSVTAADTAVYYCVPHYYGYAMDYWGQGTTVTVSS
VL: EIVLTQSPATLSLSPGERATLSCRASQDINKYIAWYQQKPGQAPRLLIHYTSTRQTGIPARFSGSGSGRDYTLTISSLEPEDFAVYYCLQYDNLLTFGGGTKLEIK
notes: CDR-grafted humanized form of 2G1
B3: humanized anti-CD22 antibody 2G1(V12) (antibody, V domains shown)
VH: EVQLKESGPVLVKPTETLTLTCTVSGFSLTSYDISWIRQPPGKALEWLGVIWTGGGTNYNSALKSRLTISKDNSKSQVVLTMTNMDPVDTATYYCVPHYYGYAMDYWGQGTTVTVSS
VL: B2 VL
notes: as for B2

How the values were obtained:
[1] = target: T1, CD22 expressed on cells (U2932, NALM6, …); assay: flow cytometry on U2932 cells expressing CD22
[2] = target: T2, CD22 protein (ACRObiosystems Inc., cat …); assay: ELISA screening of hybridoma clones
Text: A limiting dilution method was used to select a hybridoma that produces an antibody binding to CD22 from among the proliferated hybridomas. First, the number of cells was reduced to 1 cell or less per […], and then it was confirmed by ELISA whether an antibody obtained from a clone proliferated from one cell bound to CD22, and a clone binding to CD22 was selected. The above process was repeated three times to select hybridomas that produced the antibody binding to CD22. The antibody binding to CD22 was obtained in this manner.

Binder | binding result [1] | binding result [2]
B1 | binds | binds
B2 | binds | 
B3 | binds | 

Reference: patent US20250235479A1 (INNOBATION BIO, published 2025)
